Reference: paper PMC9338999

Columns and labels:
[1] = molecular target: full-length human EGFR S492R on NIH3T3 cells (human) (UniProt P00533); assay: FACS
[2] = molecular target: full-length human wild-type EGFR on NIH3T3 cells (human) (UniProt P00533); assay: FACS
WT-EGFR-ECD-Fc (human) = WT-EGFR-ECD-Fc (human) (UniProt P00533); assay: ELISA
[3] = molecular target: S492R-EGFR-ECD-Fc (human) (UniProt P00533); assay: ELISA

Panitumumab showed a Kd [1] of 2.33 nM, a Kd [2] of 2.36 nM and a Kd (WT-EGFR-ECD-Fc (human)) of 0.0211 nM. It also gave a Kd [3] of 0.0272 nM.
